{
  "source": "patent US20170218075A1",
  "about": "(HONG KONG UNIVERSITY OF SCIENCE AND TECHNOLOGY, published 2017)",
  "binders": {"B1": {"name": "IgG1 m101 (antibody, V domains shown)", "VH": "QVQLQQSGAEVKKPGSSVKVSCKASGYTFTGYYMHWVRQAPGQGLEWMGGIIPIFGTANYAQKFQGRVTITADKSTSTAYMELSSLRSEDTAVYYCATAPMVCSSTSCYLRGFDYWGQGTLVTVSS", "VL": "not shown", "notes": "Fully human IgG1 made from Fab E1 by re-cloning into the pDR12 vector; also called E1; IgG1 E1"}, "B2": {"name": "Fab E1 (m101) (Fab, V domains shown)", "VH": "B1 VH", "VL": "not shown", "notes": "Soluble Fab from the phage library, detected with anti-FLAG antibody (FLAG tag); also called clone E1; Fab m101"}, "B3": {"name": "IgG1 m105 (antibody, V domains shown)", "VH": "EVQLVQSGAEVKKPGSSVKVSCKASGGTFSSYAISWVRQAPGQGLEWMGGIIPIFGTANYAQKFQGRVTMTRDTSISTAYMELSRLRSDDTAVYYCARELLYCSSTSCGTHGFDIWGQGTMVTVSS", "VL": "not shown", "notes": "Fully human IgG1 made from Fab E5 (pDR12 vector); also called E5; 105L"}, "B4": {"name": "Fab E5 (m105) (Fab, V domains shown)", "VH": "B3 VH", "VL": "not shown", "notes": "Soluble Fab, detected with anti-FLAG antibody; also called clone E5; Fab m105"}},
  "key": {"[1]": {"target": "T1, human EphA4 fused with IgG1 Fc and Avi-tag (EphA4-Fc) (human, UniProt P54764 20-547)", "T1 construct": "also called human EphA4-Fc; not shown: human IgG1 Fc; Avi-tag", "T1 sequence (P54764 20-547 limits assumed)": "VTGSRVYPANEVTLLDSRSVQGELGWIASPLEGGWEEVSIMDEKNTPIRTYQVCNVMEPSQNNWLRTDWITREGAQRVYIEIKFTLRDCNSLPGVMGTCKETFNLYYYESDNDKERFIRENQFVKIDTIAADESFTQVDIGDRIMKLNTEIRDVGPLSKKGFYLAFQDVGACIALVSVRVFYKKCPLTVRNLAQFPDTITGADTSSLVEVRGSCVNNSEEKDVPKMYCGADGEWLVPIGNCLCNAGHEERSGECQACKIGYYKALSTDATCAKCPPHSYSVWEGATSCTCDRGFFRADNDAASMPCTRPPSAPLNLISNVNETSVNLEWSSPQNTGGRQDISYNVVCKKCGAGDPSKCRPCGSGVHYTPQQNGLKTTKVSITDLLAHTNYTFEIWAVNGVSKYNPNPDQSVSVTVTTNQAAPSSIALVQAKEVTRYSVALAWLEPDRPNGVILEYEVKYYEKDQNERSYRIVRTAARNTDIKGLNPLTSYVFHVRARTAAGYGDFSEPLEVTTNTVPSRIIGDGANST", "assay": "ELISA, EphA4 coated, IgG1 detected with anti-Fab-HRP; human EphA4; IgG1 format", "description": "(§1) FIG. 3. Binding of IgG1s m101, m105, and m119 to mouse and human EphA4 measured by ELISA. Serially diluted IgG1s were added to EphA4-coated wells. HRP-conjugated anti-Fab Ab was used for detection.\n(§2) The EphA4 proteins were coated on a 96-well plate (Costar) at 50 ng/well in PBS overnight at 4° C. For phage ELISA, phages from each round of panning (polyclonal phage ELISA) or clones randomly picked from the infected TG 1 cells (monoclonal phage ELISA) were incubated with immobilized antigen. Bound phages were detected with anti-M13-HRP polyclonal Ab (Pharmacia, Piscataway, N.J.). For the soluble Fab binding assay, HRP-conjugated mouse anti-FLAG tag Ab (Sigma-Aldrich) was used to detect Fab binding. For the IgG1 binding assay, HRP-conjugated anti-Fab Ab (Sigma-Aldrich) was used for detection. For competitive ELISA assay, extracellular domain of mouse EphA4 recombinant protein or extracellular domain of mouse EphB2 recombinant protein was pre-coated on the ELISA plate and then incubated with different IgG1s for 1 hr at room temperature. After several washes with DPBS, the EphA4 or EphB2 proteins were then incubated with different biotinylated recombinant mouse ephrin-A/ephrin-B Fc chimera proteins for 1 hr at room temperature. The interaction of EphA4/EphB2 and ephrin-A/ephrin-B was determined via the streptavidin-biotin detection method."}, "[2]": {"target": "T2, extracellular domain of mouse EphA4 recombinant protein (mouse, UniProt Q03137 20-547)", "T2 construct": "also called mouse EphA4 extracellular domain", "T2 sequence (Q03137 20-547 limits assumed)": "as the sequence (P54764 20-547 limits assumed) above, with P59A, N121S, V124G, R250Q, S251N, T270S, K378R, N406S counted along it", "assay": "competitive ELISA, mouse EphA4 ECD coated; competitor biotinylated mouse ephrin-A1 Fc", "description": "The interaction of EphA4 and ephrin-A that attenuated by the IgG1s was determined via the streptavidin-biotin detection method. IC50 of the 3 IgG1s were determined.\nas §2"}, "[3]": {"target": "T3, GST-human EphA4 ligand binding domain (LBD) (human, UniProt P54764 29-209)", "T3 construct": "also called EphA4 LBD; EphA4 LBD recombinant protein; not shown: glutathione S-transferase (GST) tag", "T3 sequence (P54764 29-209)": "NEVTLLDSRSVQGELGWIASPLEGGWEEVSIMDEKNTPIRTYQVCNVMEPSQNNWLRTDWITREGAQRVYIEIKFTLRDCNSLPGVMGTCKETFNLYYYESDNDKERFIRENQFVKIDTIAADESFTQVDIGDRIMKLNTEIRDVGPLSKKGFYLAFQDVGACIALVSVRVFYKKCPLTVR", "assay": "isothermal titration calorimetry, 20 µM LBD protein and 1 µM antibody", "description": "FIG. 5. […] Isothermal titration calorimetry (ITC) experiments were carried out by incubating 20 μM Eph LBD protein in the cell with 1 μM antibodies.\nTo investigate the binding property of the IgG1s m101, m105, and m119 to EphA4, GST-human EphA4 ligand binding domain (LBD) was expressed and purified. The recognition of EphA4 LBD by the 3 IgG1s m101, m105, and m119 was determined by Western blot analysis. The EphA4 LBD protein was run on SDS-PAGE and they were immunoblotted with the 3 IgG1s (FIG. 4). The kinetics of the 3 IgG1s and EphA4 LBD interaction were further analyzed by conducting isothermal titration calorimetry (ITC) experiments. The heat generated by the interaction of EphA4 LBD recombinant protein with the IgG1s was measured with a sensitive calorimeter."}, "[4]": {"target": "T1, human EphA4 fused with IgG1 Fc and …", "assay": "ELISA, EphA4 coated, Fab detected with anti-FLAG-HRP; human EphA4; Fab, not IgG1", "description": "FIG. 2. Binding of IgG1s E1 (m101), E2, E5 (m105), and E19 (m119) to mouse and human EphA4 measured by ELISA. Serially diluted IgG1s were added to EphA4-coated wells. HRP-conjugated anti-FLAG Ab was used for detection.\nas §2"}, "[5]": {"target": "T2, extracellular domain of mouse EphA4 …", "assay": "competitive ELISA, mouse EphA4 ECD coated; competitor biotinylated ephrin-B2 Fc; ligand Ephrin-B2", "description": "(§3) Extracellular domain of mouse EphA4 recombinant protein or extracellular domain of mouse EphB2 recombinant protein was first incubated with IgG1 m105, followed by incubating with different biotinylated recombinant mouse ephrin-A/ephrin-B Fc chimeric proteins. The effect of IgG1 m105 on the interaction of EphA4/EphB2 and ephrin-A/ephrin-B was then determined via the streptavidin-biotin detection method.\nas §2, with “After several washes with DPBS, the EphA4 or EphB2 proteins were then incubated with different biotinylated recombinant mouse ephrin-A/ephrin-B Fc chimera proteins for 1 hr at room temperature.” left out"}, "[6]": {"target": "EphA4 in cultured hippocampal neurons (rat, UniProt D3ZZK3 20-986)", "assay": "cell-based or functional assay"}, "[7]": {"target": "T4, extracellular domain of mouse EphB2 recombinant protein (mouse, UniProt P54763 19-543)", "T4 construct": "extracellular domain; also called EphB2 receptor", "T4 sequence (looked up)": "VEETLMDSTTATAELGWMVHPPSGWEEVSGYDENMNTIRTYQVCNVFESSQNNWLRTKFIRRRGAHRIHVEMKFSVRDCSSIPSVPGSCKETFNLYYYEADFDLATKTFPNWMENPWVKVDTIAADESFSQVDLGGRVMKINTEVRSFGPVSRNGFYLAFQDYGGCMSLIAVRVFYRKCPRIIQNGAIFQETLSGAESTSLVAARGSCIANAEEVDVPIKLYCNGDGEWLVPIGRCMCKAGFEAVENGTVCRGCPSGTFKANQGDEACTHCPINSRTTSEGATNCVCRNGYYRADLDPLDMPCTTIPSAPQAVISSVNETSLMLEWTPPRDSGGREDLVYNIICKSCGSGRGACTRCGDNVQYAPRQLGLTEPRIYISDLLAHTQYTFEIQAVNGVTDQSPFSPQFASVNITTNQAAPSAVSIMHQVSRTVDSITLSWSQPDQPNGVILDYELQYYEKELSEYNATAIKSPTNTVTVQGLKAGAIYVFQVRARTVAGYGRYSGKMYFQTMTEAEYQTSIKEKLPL", "assay": "competitive ELISA: mouse EphB2 extracellular domain coated, incubated with IgG1 m105, then biotinylated mouse ephrin-B2 Fc; streptavidin-biotin detection, % of inhibition", "description": "as §3\nas §2, with “After several washes with DPBS, the EphA4 or EphB2 proteins were then incubated with different biotinylated recombinant mouse ephrin-A/ephrin-B Fc chimera proteins for 1 hr at room temperature.” left out"}, "[8]": {"target": "T2, extracellular domain of mouse EphA4 …", "assay": "competitive ELISA, mouse EphA4 ECD coated; competitor biotinylated mouse ephrin-A5 Fc; ligand mEphrin-A5", "description": "as §3\nas §2, with “After several washes with DPBS, the EphA4 or EphB2 proteins were then incubated with different biotinylated recombinant mouse ephrin-A/ephrin-B Fc chimera proteins for 1 hr at room temperature.” left out"}, "[9]": {"target": "T2, extracellular domain of mouse EphA4 …", "assay": "competitive ELISA, mouse EphA4 ECD coated; competitor biotinylated mouse ephrin-A1 Fc; ligand mEphrin-A1", "description": "as §3\nas §2, with “After several washes with DPBS, the EphA4 or EphB2 proteins were then incubated with different biotinylated recombinant mouse ephrin-A/ephrin-B Fc chimera proteins for 1 hr at room temperature.” left out"}, "[10]": {"target": "T2, extracellular domain of mouse EphA4 …", "assay": "competitive ELISA: mouse EphA4 extracellular domain coated, incubated with IgG1 m105, then biotinylated mouse ephrin-B2 Fc; streptavidin-biotin detection, % of inhibition", "description": "as §3\nas §2, with “After several washes with DPBS, the EphA4 or EphB2 proteins were then incubated with different biotinylated recombinant mouse ephrin-A/ephrin-B Fc chimera proteins for 1 hr at room temperature.” left out"}, "[11]": {"target": "T1, human EphA4 fused with IgG1 Fc and …", "assay": "ELISA, EphA4 coated, IgG1 detected with anti-Fab-HRP", "description": "as §1, §2"}},
  "data": [
    {"binder": "B1", "values": [
      {"measurement": "EC50", "setting": "[1]", "value": 1, "unit": "nM"},
      {"measurement": "IC50", "setting": "[2]", "value": 0.71, "unit": "nM"},
      {"measurement": "Kd", "setting": "[3]", "value": "~83", "unit": "nM"}
    ]},
    {"binder": "B2", "values": [
      {"measurement": "EC50", "setting": "[4]", "value": 5, "unit": "nM"}
    ]},
    {"binder": "B3", "values": [
      {"measurement": "IC50", "setting": "[5]", "value": 1.81, "unit": "nM"},
      {"measurement": "IC50 of inhibition of ephrin-A1 mediated EphA4 clusters", "setting": "[6]", "value": 4.16, "unit": "mg/L"},
      {"measurement": "binding result", "setting": "[7]", "value": "no binding (tested: 1000 nM (Log [nM] = 3))"},
      {"measurement": "IC50", "setting": "[8]", "value": 22.7, "unit": "nM"},
      {"measurement": "IC50", "setting": "[9]", "value": 0.34, "unit": "nM"},
      {"measurement": "IC50", "setting": "[10]", "value": 0.78, "unit": "nM"},
      {"measurement": "IC50", "setting": "[2]", "value": 0.35, "unit": "nM"},
      {"measurement": "EC50", "setting": "[11]", "value": "< 1", "unit": "nM"},
      {"measurement": "Kd", "setting": "[3]", "value": "~8.6", "unit": "nM"}
    ]},
    {"binder": "B4", "values": [
      {"measurement": "EC50", "setting": "[4]", "value": 2, "unit": "nM"}
    ]}
  ]
}
